Here are results for twelve molecules from patent US6548643.

What all share (experiment): cell-based or functional assay
Experiment [1] has as its target H-2L^d class I molecule on P815 cells (mouse) (UniProt P01897).
The target of experiment [2] is T1, H-2D^d class I molecule on P815 cells (mouse) (UniProt P01900).
T1 sequence (MHC heavy, looked up): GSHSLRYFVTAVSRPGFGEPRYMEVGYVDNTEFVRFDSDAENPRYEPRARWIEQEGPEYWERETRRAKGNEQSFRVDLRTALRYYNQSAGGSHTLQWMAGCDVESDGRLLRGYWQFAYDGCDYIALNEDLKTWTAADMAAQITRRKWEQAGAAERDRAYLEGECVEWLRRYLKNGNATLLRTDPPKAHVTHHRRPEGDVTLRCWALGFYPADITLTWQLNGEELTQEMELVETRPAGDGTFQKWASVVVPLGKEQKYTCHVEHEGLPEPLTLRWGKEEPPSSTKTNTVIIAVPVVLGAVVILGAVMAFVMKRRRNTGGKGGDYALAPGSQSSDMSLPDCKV

The target in experiment [3] is H-2K^b class I molecule on RMA cells (mouse) (UniProt P01901).
Chain of UniProt P01901 (P01901 22-369): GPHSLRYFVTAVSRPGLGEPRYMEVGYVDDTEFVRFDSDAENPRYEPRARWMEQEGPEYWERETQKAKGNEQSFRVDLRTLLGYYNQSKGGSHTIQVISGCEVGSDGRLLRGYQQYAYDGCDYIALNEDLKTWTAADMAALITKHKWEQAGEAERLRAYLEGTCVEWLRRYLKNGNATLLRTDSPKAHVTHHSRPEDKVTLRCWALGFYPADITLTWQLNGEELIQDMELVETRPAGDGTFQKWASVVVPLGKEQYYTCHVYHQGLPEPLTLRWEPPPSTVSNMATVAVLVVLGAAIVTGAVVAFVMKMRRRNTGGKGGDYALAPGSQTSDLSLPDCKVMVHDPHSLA
The target in experiment [4] is H-2K^d class I molecule on P815 cells (mouse) (UniProt P01902).
Chain of UniProt P01902 (P01902 22-368): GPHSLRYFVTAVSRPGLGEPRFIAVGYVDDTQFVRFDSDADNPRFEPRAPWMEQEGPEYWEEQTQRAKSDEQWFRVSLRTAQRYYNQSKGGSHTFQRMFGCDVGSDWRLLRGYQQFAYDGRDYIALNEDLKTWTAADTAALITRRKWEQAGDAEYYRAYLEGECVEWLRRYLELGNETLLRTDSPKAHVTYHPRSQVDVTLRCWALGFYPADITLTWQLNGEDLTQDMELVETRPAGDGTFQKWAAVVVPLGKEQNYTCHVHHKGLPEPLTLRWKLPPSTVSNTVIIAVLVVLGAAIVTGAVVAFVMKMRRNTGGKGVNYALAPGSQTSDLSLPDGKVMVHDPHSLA
Experiment [5] has as its target H-2D^b class I molecule on RMA cells (mouse) (UniProt P01899).
Chain of UniProt P01899 (P01899 25-362): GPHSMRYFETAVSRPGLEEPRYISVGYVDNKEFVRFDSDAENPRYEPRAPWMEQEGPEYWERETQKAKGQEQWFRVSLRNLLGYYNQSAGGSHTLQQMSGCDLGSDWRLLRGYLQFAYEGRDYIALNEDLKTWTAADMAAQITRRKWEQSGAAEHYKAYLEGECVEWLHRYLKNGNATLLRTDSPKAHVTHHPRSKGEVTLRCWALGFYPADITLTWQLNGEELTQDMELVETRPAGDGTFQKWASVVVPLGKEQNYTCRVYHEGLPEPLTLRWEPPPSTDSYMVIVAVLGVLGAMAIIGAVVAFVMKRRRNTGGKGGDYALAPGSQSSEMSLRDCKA

Chain of UniProt P01897 (P01897 25-362): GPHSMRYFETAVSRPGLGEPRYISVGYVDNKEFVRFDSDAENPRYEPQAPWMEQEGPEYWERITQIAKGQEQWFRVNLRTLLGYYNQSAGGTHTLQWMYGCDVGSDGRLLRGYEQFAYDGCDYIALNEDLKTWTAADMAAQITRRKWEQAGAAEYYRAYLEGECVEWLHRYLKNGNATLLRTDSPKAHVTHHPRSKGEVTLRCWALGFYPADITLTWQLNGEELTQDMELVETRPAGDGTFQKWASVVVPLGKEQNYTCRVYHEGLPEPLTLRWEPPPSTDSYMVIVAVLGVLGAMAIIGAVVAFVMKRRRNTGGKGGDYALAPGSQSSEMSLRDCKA

As to APDTRPAPG, the % lysis of peptide-pulsed P815 target cells by mannan-HMFG CTL, E:T 50:1 in experiment [1] was 50%.
The molecule SAPDTRPAP yielded a % lysis of peptide-pulsed P815 target cells by mannan-HMFG CTL, E:T 50:1 in experiment [2] of 62%. Besides, the % lysis of peptide-pulsed RMA target cells by mannan-HMFG CTL in experiment [3] is 80%.
Turning to NYGQLDIFP, the % lysis of peptide-pulsed P815 target cells by CTL of mannan-HMFG immunised BALB/c mice (51Cr release) in experiment [4] came out at 0%.
On to YYQELQRDI, for which the % lysis of peptide-pulsed P815 target cells by mannan-HMFG CTL, E:T 50:1 in experiment [4] was found to be 50%.
In turn, YGQLDIFPA returned a % lysis of peptide-pulsed P815 target cells by CTL of mannan-HMFG immunised BALB/c mice (51Cr release) in experiment [2] of 0%.
In turn, VPSSTEKNA showed a % lysis of peptide-pulsed P815 target cells by mannan-HMFG CTL, E:T 50:1 in experiment [1] of 78%.
In experiment [2], SVPSSTEKN showed a % lysis of peptide-pulsed P815 target cells by mannan-HMFG CTL, E:T 50:1 of 0%.
In experiment [3], CRRKNYGQL gave a % lysis of peptide-pulsed RMA target cells by mannan-HMFG CTL, E:T 50:1 of 20% and a % lysis of peptide-pulsed RMA target cells by mannan-HMFG CTL, E:T 100:1 of 42%. In experiment [5], this molecule gave a % lysis of peptide-pulsed RMA target cells by mannan-HMFG CTL, E:T 50:1 of 20% and a % lysis of peptide-pulsed RMA target cells by mannan-HMFG CTL, E:T 100:1 of 42%.
In experiment [5], APGSTAPPA displayed a % lysis of peptide-pulsed RMA target cells by mannan-HMFG CTL of 70%.
Take AVSMTSSVL: in experiment [4], the % lysis of peptide-pulsed P815 target cells by mannan-HMFG CTL, E:T 50:1 worked out at 77%. The % lysis of peptide-pulsed RMA target cells by mannan-HMFG CTL, E:T 50:1 in experiment [3] and in experiment [5] was 18% each time. The % lysis of peptide-pulsed RMA target cells by mannan-HMFG CTL, E:T 100:1 in experiment [3] and in experiment [5] was 40% each time.
For the molecule SAPDNRPAL, the % lysis of peptide-pulsed RMA target cells by mannan-HMFG CTL, E:T 50:1 in experiment [5] was 50%.
On to KNYGQLDIF, for which the % lysis of peptide-pulsed P815 target cells by CTL of mannan-HMFG immunised BALB/c mice (51Cr release) in experiment [1] was found to be 0%.
